According to the supplement of paper PMC7877785:
± gives the uncertainty stated by the source.

Assay: self-splicing fitness, log relative to wild type (ln ratio); higher = more splicing; Tetrahymena group I intron in knt gene, E. coli kanamycin selection, DiMSum; sequences stand for … in CUCUCU…GGAGGGAAAAGUUAUCAGGCAUGCACCUGGUAGCUAGUCUUUAAACCAAUAGAUUGCAUCGGUUUAAAAGGCAAGACCGUCAAAUUGCGGGAAAGGGGUCAACAGCCGUUCAGUACCAAGUCUCAGGGGAAACUUUGAGAUGGCCUUGCAAAGGGUAUGGUAAUAAGCUGACGGACAUGGUCCUAACCACGCAGCCAAGUCCUAAGUCAACAGAUCUUCUGUUGAUAUGGAUGCAGUUCACAGACUAAAUGUCGGUCGGGGAAGAUGUAUUCUUCUCAUAAGAUAUAGUCGGACCUCUCCUUAAUGGGAGCUAGCGGAUGAAGUGAUGCAACACUGGAGCCGCUGGGAACUAAUUUGUAUGCGAAAGUAUAUUGAUUAGUUUUGGAGUACUCGUGGUCG
How it was run: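 Library with all eight P1ex-region intron nucleotides randomised, intron inside the knt kanamycin-resistance gene on pET-22b(+), in E. coli BL21(DE3). Cells grew overnight at 37°C or 30°C on LB agar with or without 25 μg/mL kanamycin (plus 100 μg/mL carbenicillin, 50 μM IPTG, 0.2% rhamnose), in six replicate transformations. Pooled colonies were amplicon-sequenced on Illumina HiSeq 2500. DiMSum fitness is the error-weighted combination of wild-type-normalised replicate fold changes, kanamycin versus none.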

UAUAAGCAAUAUUACGGUCA
self-splicing fitness (ln) (30 °C): -0.385 ± 0.12
self-splicing fitness (ln) (37 °C): -0.125 ± 0.13

CUCAAGCAAUAUUACGGCUC
self-splicing fitness (ln) (30 °C): -3.53 ± 0.26
self-splicing fitness (ln) (37 °C): -1.34 ± 0.21

AAACAGCAAUAUUACGCGGG
self-splicing fitness (ln) (30 °C): -2.69 ± 0.097
self-splicing fitness (ln) (37 °C): -0.988 ± 0.073

GGGUAGCAAUAUUACGACAA
self-splicing fitness (ln) (30 °C): -0.573 ± 0.24
self-splicing fitness (ln) (37 °C): -0.263 ± 0.21

UGCGAGCAAUAUUACGGGUA
self-splicing fitness (ln) (30 °C): -1.19 ± 0.18
self-splicing fitness (ln) (37 °C): -0.698 ± 0.21

UAGAAGCAAUAUUACGCUGG
self-splicing fitness (ln) (30 °C): -1.38 ± 0.16
self-splicing fitness (ln) (37 °C): -0.436 ± 0.18

GAUGAGCAAUAUUACGAUUG
self-splicing fitness (ln) (30 °C): -4.96 ± 0.45
self-splicing fitness (ln) (37 °C): -2.67 ± 0.22

UGAUAGCAAUAUUACGCGGG
self-splicing fitness (ln) (30 °C): -3.28 ± 0.31
self-splicing fitness (ln) (37 °C): -1.7 ± 0.25

AGCAAGCAAUAUUACGGCCA
self-splicing fitness (ln) (30 °C): -0.0326 ± 0.088
self-splicing fitness (ln) (37 °C): -0.0437 ± 0.12

UAGCAGCAAUAUUACGCAUG
self-splicing fitness (ln) (30 °C): -0.793 ± 0.096
self-splicing fitness (ln) (37 °C): -1.17 ± 0.14

ACAAAGCAAUAUUACGGUUC
self-splicing fitness (ln) (30 °C): -3.12 ± 0.13
self-splicing fitness (ln) (37 °C): -1.93 ± 0.17

AGGUAGCAAUAUUACGUAUC
self-splicing fitness (ln) (30 °C): -3.25 ± 0.025
self-splicing fitness (ln) (37 °C): -2.07 ± 0.038

UAAAAGCAAUAUUACGAACA
self-splicing fitness (ln) (30 °C): -0.822 ± 0.072
self-splicing fitness (ln) (37 °C): 0.504 ± 0.11

AUGAAGCAAUAUUACGUCUG
self-splicing fitness (ln) (30 °C): -0.0483 ± 0.061
self-splicing fitness (ln) (37 °C): 0.316 ± 0.079

GACUAGCAAUAUUACGAUUA
self-splicing fitness (ln) (30 °C): -0.841 ± 0.069
self-splicing fitness (ln) (37 °C): -0.413 ± 0.082

UCUUAGCAAUAUUACGUAGU
self-splicing fitness (ln) (30 °C): -2.27 ± 0.13
self-splicing fitness (ln) (37 °C): -1.35 ± 0.14

ACAGAGCAAUAUUACGUAUA
self-splicing fitness (ln) (30 °C): -3.37 ± 0.26
self-splicing fitness (ln) (37 °C): -2.72 ± 0.31

CGCCAGCAAUAUUACGCGCG
self-splicing fitness (ln) (30 °C): -3.57 ± 0.16
self-splicing fitness (ln) (37 °C): -3.7 ± 0.27

GACGAGCAAUAUUACGCUUG
self-splicing fitness (ln) (30 °C): -4 ± 0.26
self-splicing fitness (ln) (37 °C): -1.27 ± 0.16

UUCAAGCAAUAUUACGAAGA
self-splicing fitness (ln) (30 °C): -2.03 ± 0.19
self-splicing fitness (ln) (37 °C): -1.26 ± 0.19

CCGGAGCAAUAUUACGGUUU
self-splicing fitness (ln) (30 °C): -3.33 ± 0.25
self-splicing fitness (ln) (37 °C): -2.55 ± 0.18

UAUGAGCAAUAUUACGUGGC
self-splicing fitness (ln) (30 °C): -3.07 ± 0.2
self-splicing fitness (ln) (37 °C): -2.52 ± 0.46

CAACAGCAAUAUUACGCUAC
self-splicing fitness (ln) (30 °C): -4.32 ± 0.24
self-splicing fitness (ln) (37 °C): -2.3 ± 0.15

ACCAAGCAAUAUUACGGUGA
self-splicing fitness (ln) (30 °C): -1.68 ± 0.1
self-splicing fitness (ln) (37 °C): -1.29 ± 0.083

UAACAGCAAUAUUACGACUU
self-splicing fitness (ln) (30 °C): -0.586 ± 0.084
self-splicing fitness (ln) (37 °C): 0.316 ± 0.11

CGGCAGCAAUAUUACGACAC
self-splicing fitness (ln) (30 °C): -3.52 ± 0.24
self-splicing fitness (ln) (37 °C): -2.65 ± 0.21

AUACAGCAAUAUUACGCAAC
self-splicing fitness (ln) (30 °C): -2.13 ± 0.16
self-splicing fitness (ln) (37 °C): -1.49 ± 0.15

AUAAAGCAAUAUUACGCCCA
self-splicing fitness (ln) (30 °C): 0.167 ± 0.18
self-splicing fitness (ln) (37 °C): -0.307 ± 0.23

GUACAGCAAUAUUACGGAAA
self-splicing fitness (ln) (30 °C): -2.77 ± 0.22
self-splicing fitness (ln) (37 °C): -2.72 ± 0.25

UUGUAGCAAUAUUACGGGGU
self-splicing fitness (ln) (30 °C): -3.7 ± 0.46
self-splicing fitness (ln) (37 °C): -2.68 ± 0.27

CACUAGCAAUAUUACGGCUA
self-splicing fitness (ln) (30 °C): -3.46 ± 0.47
self-splicing fitness (ln) (37 °C): -2.1 ± 0.32

GCCAAGCAAUAUUACGCAGU
self-splicing fitness (ln) (30 °C): -2.82 ± 0.13
self-splicing fitness (ln) (37 °C): -1.22 ± 0.14

CUACAGCAAUAUUACGUGAU
self-splicing fitness (ln) (30 °C): -2.01 ± 0.063
self-splicing fitness (ln) (37 °C): -1.18 ± 0.085

GGGAAGCAAUAUUACGAGGC
self-splicing fitness (ln) (30 °C): -3.08 ± 0.29
self-splicing fitness (ln) (37 °C): -1.4 ± 0.2

GCGUAGCAAUAUUACGAGAA
self-splicing fitness (ln) (30 °C): -1.15 ± 0.29
self-splicing fitness (ln) (37 °C): -1.9 ± 0.2

GCUAAGCAAUAUUACGCUGG
self-splicing fitness (ln) (30 °C): -4.23 ± 0.24
self-splicing fitness (ln) (37 °C): -2.76 ± 0.26

AGUGAGCAAUAUUACGGCUG
self-splicing fitness (ln) (30 °C): -2.19 ± 0.12
self-splicing fitness (ln) (37 °C): -0.36 ± 0.16

GAGUAGCAAUAUUACGGGAU
self-splicing fitness (ln) (30 °C): -3.73 ± 0.33
self-splicing fitness (ln) (37 °C): -2.96 ± 0.35

UAACAGCAAUAUUACGCUAC
self-splicing fitness (ln) (30 °C): -3.37 ± 0.15
self-splicing fitness (ln) (37 °C): -2.24 ± 0.2

GAUGAGCAAUAUUACGGUAU
self-splicing fitness (ln) (30 °C): -2.71 ± 0.18
self-splicing fitness (ln) (37 °C): -1.28 ± 0.14

CCACAGCAAUAUUACGUUUU
self-splicing fitness (ln) (30 °C): -3.73 ± 0.16
self-splicing fitness (ln) (37 °C): -3.7 ± 0.22

CGCUAGCAAUAUUACGAUCC
self-splicing fitness (ln) (30 °C): -2.01 ± 0.37
self-splicing fitness (ln) (37 °C): -1.74 ± 0.42

CGCUAGCAAUAUUACGGGUG
self-splicing fitness (ln) (30 °C): -3.31 ± 0.12
self-splicing fitness (ln) (37 °C): -2.83 ± 0.13

UGUUAGCAAUAUUACGAACG
self-splicing fitness (ln) (30 °C): -0.101 ± 0.092
self-splicing fitness (ln) (37 °C): -0.499 ± 0.11

GAAUAGCAAUAUUACGGACA
self-splicing fitness (ln) (30 °C): -0.557 ± 0.12
self-splicing fitness (ln) (37 °C): -0.0249 ± 0.16

CCUCAGCAAUAUUACGUGGG
self-splicing fitness (ln) (30 °C): -4.89 ± 0.25
self-splicing fitness (ln) (37 °C): -3.15 ± 0.19

UCCGAGCAAUAUUACGAACG
self-splicing fitness (ln) (30 °C): -1.82 ± 0.37
self-splicing fitness (ln) (37 °C): -1.06 ± 0.22

CUAGAGCAAUAUUACGGUAG
self-splicing fitness (ln) (30 °C): -0.666 ± 0.12
self-splicing fitness (ln) (37 °C): -0.0273 ± 0.15

GUACAGCAAUAUUACGGAAC
self-splicing fitness (ln) (30 °C): -3.3 ± 0.19
self-splicing fitness (ln) (37 °C): -0.753 ± 0.17

GUCAAGCAAUAUUACGGACG
self-splicing fitness (ln) (30 °C): -3.64 ± 0.27
self-splicing fitness (ln) (37 °C): -2.01 ± 0.13

GCUAAGCAAUAUUACGGGUU
self-splicing fitness (ln) (30 °C): -2.18 ± 0.09
self-splicing fitness (ln) (37 °C): -1.28 ± 0.089

GCAUAGCAAUAUUACGAUCC
self-splicing fitness (ln) (30 °C): -0.993 ± 0.19
self-splicing fitness (ln) (37 °C): 0.0935 ± 0.28

AGGCAGCAAUAUUACGGCGU
self-splicing fitness (ln) (30 °C): -0.172 ± 0.063
self-splicing fitness (ln) (37 °C): -0.0953 ± 0.079

GAACAGCAAUAUUACGAAGA
self-splicing fitness (ln) (30 °C): -1.13 ± 0.18
self-splicing fitness (ln) (37 °C): -0.694 ± 0.16

GUGCAGCAAUAUUACGGAAU
self-splicing fitness (ln) (30 °C): -2.01 ± 0.073
self-splicing fitness (ln) (37 °C): -0.012 ± 0.087

CAGCAGCAAUAUUACGCCUC
self-splicing fitness (ln) (30 °C): -1.98 ± 0.13
self-splicing fitness (ln) (37 °C): -0.839 ± 0.14

AUCUAGCAAUAUUACGGACC
self-splicing fitness (ln) (30 °C): -0.962 ± 0.16
self-splicing fitness (ln) (37 °C): -0.141 ± 0.23

CUACAGCAAUAUUACGUAAC
self-splicing fitness (ln) (30 °C): -3.34 ± 0.16
self-splicing fitness (ln) (37 °C): -2.03 ± 0.21

GAAGAGCAAUAUUACGGAGG
self-splicing fitness (ln) (30 °C): -2.48 ± 0.2
self-splicing fitness (ln) (37 °C): -2.01 ± 0.31
